We go through 7 molecules from patent US20240209076A1 (KODIAK SCIENCES, published 2024).

Residue numbers refer to the chain shown, from its start. Names may count otherwise.

The IC50 is the concentration that gives 50% inhibition. Broadly, the Kd is the constant that tells how readily two partners part at equilibrium. A low value points to tighter binding. By kon is commonly meant the rate constant with which the complex forms. For orientation: koff means a measure of how fast the partners let go of each other.

Assay [1] has as its target VEGF (UniProt P15692-4 27-191, limits assumed). The assay can be described thus: cell-based or functional assay.
Target sequence in this assay (P15692 other isoform, or with tags, fused parts or gaps limits assumed): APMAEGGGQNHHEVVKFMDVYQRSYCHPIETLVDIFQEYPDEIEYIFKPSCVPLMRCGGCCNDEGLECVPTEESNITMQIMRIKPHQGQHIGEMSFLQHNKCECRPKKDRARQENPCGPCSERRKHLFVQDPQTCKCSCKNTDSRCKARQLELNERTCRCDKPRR
The target of assay [2] is T1, recombinant human IL-6 (human, UniProt P05231 30-212). Put plainly: IL-6/IL-6R competitive ELISA as in example 3. The method, then: The plate was blocked in 2% bovine serum albumin (BSA) in PBS-Tween (PBST) for 2 hours. […] This mixture was then added to the ELISA plate following a wash step.
T1 sequence (P05231 30-212 limits assumed): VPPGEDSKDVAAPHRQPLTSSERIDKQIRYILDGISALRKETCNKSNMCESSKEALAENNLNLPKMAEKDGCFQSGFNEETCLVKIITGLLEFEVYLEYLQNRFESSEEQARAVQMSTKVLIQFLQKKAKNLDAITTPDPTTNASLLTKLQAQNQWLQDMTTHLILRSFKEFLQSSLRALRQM
(In general: An ELISA detects its analyte on a solid surface through an enzyme-linked reagent.)

The target of assay [3] is T2, biotinylated VEGF (R&D Systems) (UniProt P15692-4 27-191, limits assumed, biotinylated).
T2 construct: also called btVEGF; bt-VEGF
T2 sequence (P15692 other isoform, or with tags, fused parts or gaps limits assumed): as the sequence (P15692 other isoform, or with tags, fused parts or gaps limits assumed) above
The assay can be described thus: VEGF/VEGFR competitive ELISA as in example 3. The method, then:
The plate was blocked in 2% bovine serum albumin (BSA) in PBS-Tween (PBST) for 2 hours.
This assay was performed as described in example 3.

In assay [4] the target is T3, VEGF (UniProt P15692-4 27-191, limits assumed).
T3 construct: also called VEGF-A
Put plainly: KinExA 3200, in solution, 37 C. A general note: In KinExA the mixture passes briefly over coated beads that capture the unbound partner.
T3 sequence (P15692 other isoform, or with tags, fused parts or gaps limits assumed): as above

Assay [5] addresses T4, human IL-6 (human, UniProt P05231 30-212). The assay can be described thus: KinExA 3200, in solution, 37 C.
The target in assay [6] is T3, VEGF. Put plainly: KinExA 3200, kinetic measurement, 37 C.
The target of assay [7] is T4, human IL-6. Put plainly: KinExA 3200, kinetic measurement, 37 C.
The target of assay [8] is T3, VEGF. Put plainly: KinExA 3200, calculated as Kd x kon, 37 C.
Assay [9] deals with T4, human IL-6. Put plainly: KinExA 3200, calculated as Kd x kon, 37 C.
Assay [10] addresses T1, recombinant human IL-6. Put plainly: SPR, antibody captured on Protein A, IL-6 as analyte. The method, then: Antibodies were captured on a Protein A chip (GE) by injecting 1:20 dilution of cell supernatant at 10 μL/min for 60 seconds. […] The sensor chip was regenerated by a 60 seconds injection of 10 mM Glycine pH 1.7 at flow rate of 50 μL/min. […] For this setup, 1 μg/mL of purified antibody was injected over a Protein A chip at 10 μL/min for 25-28 seconds. Data analysis for supernatant and purified samples were performed using BIAevaluation software (GE). All sensorgrams were double reference subtracted and fit using a 1:1 Langmuir binding model.

The target in assay [11] is T1, recombinant human IL-6. The assay can be described thus: SPR, antibody captured on Protein A, 37 C. The method, then: Antibodies were captured on a Protein A chip (GE) by injecting 1:20 cell supernatant dilutions at 10 μL/min for 60 seconds. […] The sensor chip was regenerated by a 60 seconds injection of 10 mM Glycine pH 1.7 at the flow rate of 50 μL/min. […] For this setup, 1 μg/mL of purified antibody was injected over a Protein A chip at 10 μL/min for 25 seconds. […] The sensor chip was regenerated by a 60 seconds injection of 10 mM Glycine pH 1.7 at flow rate of 50 μL/min. Data analysis for supernatant and purified samples were performed using BIAevaluation software (GE). All sensorgrams were double reference subtracted and fit using a 1:1 Langmuir binding model.

T4 sequence (P05231 30-212 limits assumed): as the sequence (P05231 30-212 limits assumed) above

B1: VEGFR-AntiIL6-OG1802 (other)
heavy: SDTGRPFVEMYSEIPEIIHMTEGRELVIPCRVTSPNITVTLKKFPLDTLIPDGKRIIWDSRKGFIISNATYKEIGLLTCEATVNGHLYKTNYLTHRQTNTIIDVVLSPSHGIELSVGEKLVLNCTARTELNVGIDFNWEYPSSKHQHKKLVNRDLKTQSGSEMKKFLSTLTIDGVTRSDQGLYTCAASSGLMTKKNSTFVRVHEKGGGGSGGGGSEVQLVESGGGLVQPGGSLRLSCAASGFTFSPFAMHWVRQAPGKGLEWVAKISPGGSWTYYSDTVTDRFTFSLDTSKSTAYLQMNSLRAEDTAVYYCARQAWGYYALDIWGQGTLVTVSSASTKGPSVFPLAPSSKSTSGGTAALGCLVKDYFPEPVTVSWNSGALTSGVHTFPAVLQSSGLYSLSSVVTVPSSSLGTQTYICNVNHKPSNTKVDKKVEPKSCDKTHTCPPCPAPEAAGAPSVFLFPPKPKDTLMISRTPEVTCVVVDVSHEDPEVKFNWYVDGVEVHNAKTKPREEQYNSTYRVVSVLTVLHQDWLNGKEYKCKVSNKALPAPIEKTISKAKGQPREPQVYTLPPSREEMTKNQVSLTCLVKGFYPSDIAVEWESNGQPENNYKTTPPVLDSDGSFFLYSKLTVDKSRWQQGNVFSCSVMHEALHNHYTQKSLSCSPGK
light: DIQLTQSPSSLSASVGDRVTITCSASISVSYLYWYQQKPGKAPKLLIYDDSSLASGVPSRFSGSGSGTDFTLTISSLQPEDFATYYCQQWSGYPYTFGQGTKVEIKRTVAAPSVFIFPPSDEQLKSGTASVVCLLNNFYPREAKVQWKVDNALQSGNSQESVTEQDSKDSTYSLSSTLTLSKADYEKHKVYACEVTHQGLSSPVTKSFNRGEC
modifications: OG1802 phosphorylcholine polymer (about 794 kDa) on Cys L443C (EU numbering; 660C in SEQ ID NO: 170) by maleimide-cysteine chemistry, one polymer per molecule
notes: also called bioconjugate
Regarding B1, in the assay with VEGF [1], the “cell based VEGF stimulated VEGFR reporter assay, average IC50” value came to 0.35 nM. Further, the IC50 was found to be 0.23 nM with recombinant human IL-6 [2] and 0.99 nM in assay [3].

B2: VEGFR-AntiIL6 (other)
heavy: B1 heavy
light: B1 light
notes: VEGF trap (VEGFR1 domain 2 - VEGFR2 domain 3) fused by a GS linker to the N-terminus of the anti-IL-6 IgG1 heavy chain; also called VEGF Trap-anti-IL6 antibody fusion
In the case of B2, the Kd in the assay with VEGF [4] came to 2.1 pM; with human IL-6 [5] it was 0.0211 nM. In addition, the kon amounted to 4.04e+07 M⁻¹ s⁻¹ with VEGF [6] and 1.15e+07 M⁻¹ s⁻¹ in the assay with human IL-6 [7]. For the same molecule, the results for the koff with VEGF [8] and with human IL-6 [9] were 8.49e-05 s⁻¹ and 0.000242 s⁻¹, respectively.

B3: VEGFR-AntiIL6-OG1802 (other)
heavy: B1 heavy
light: B1 light
modifications: OG1802 phosphorylcholine biopolymer (about 794 kDa) on Cys L443C (EU numbering; 660C in SEQ ID NO: 170) by maleimide; one polymer per molecule
notes: Polymer conjugate of m3; also called VEGFR-AntiIL6 bioconjugate
Take B3: the Kd in the assay with VEGF [4] stood at 1.02 pM; with human IL-6 [5], 0.0121 nM. The figures for the kon with VEGF [6] and in the assay with human IL-6 [7] were 3.75e+06 M⁻¹ s⁻¹ and 8e+06 M⁻¹ s⁻¹, respectively. Also, the figures for the koff with VEGF [8] and with human IL-6 [9] were 3.83e-06 s⁻¹ and 9.66e-05 s⁻¹, respectively.

B4: VEGFR-AntiIL6 (FIG. 27) (other)
heavy: B1 heavy
light: B1 light
Take B4: the “cell based VEGF stimulated VEGFR reporter assay, average IC50” value with VEGF [1] was 0.51 nM. Also, the values for the IC50 (in the assay with recombinant human IL-6 [2]; in [3]) were 0.26 nM and 1.98 nM, respectively.

B5: anti-IL-6 antibody, heavy chain G66D, light chain wild-type (antibody, human IgG1, V domains shown)
VH: EVQLVESGGGLVQPGGSLRLSCAASGFTFSPFAMSWVRQAPGKGLEWVAKISPGGSWTYYSDTVTDRFTFSLDTSKSTAYLQMNSLRAEDTAVYYCARQLWGYYALDIWGQGTLVTVSS
VL: DIQLTQSPSSLSASVGDRVTITCSASISVSYMYWYQQKPGKAPKLLIYDMSNLASGVPSRFSGSGSGTDFTLTISSLQPEDFATYYCMQWSGYPYTFGQGTKVEIK
notes: see m23; engineered human IgG1
As to B5, in the assay with recombinant human IL-6 [10], the “fold decrease in KD relative to wild-type” value was around 2 fold.

B6: anti-IL-6 antibody, heavy chain S35H G66D, light chain wild-type (antibody, human IgG1, V domains shown)
VH: B5 VH with S35H
VL: B5 VL
notes: see m23; engineered human IgG1; also called S35H G66D double mutant
In the case of B6, in the assay with recombinant human IL-6 [11], the “fold increase in affinity” value was around 2 fold.

B7: anti-IL-6 antibody, heavy chain S35H G66D, light chain M32L/M50D/N52S/M88Q (antibody, human IgG1, V domains shown)
VH: B5 VH with S35H
VL: B5 VL with M32L, M50D, N52S, M88Q
notes: as for B6
Regarding B7, the “fold increase in affinity” value with recombinant human IL-6 [11] was around 1.3 fold.
